This experiment has as its target biotinylated, tyrosine-phosphorylated CLEC-2 alanine substitution mutant peptide (2–5 Ala). Description: SPR.

In the case of “GST-tagged recombinant Syk tandem SH2 domains (both SH2 domains with the linker region) (domain or fragment)”, the fold decrease in affinity against the wild type peptide was 3 fold.
The result for “GST-tagged recombinant Syk C-terminal SH2 domain (domain or fragment)” reads 4 fold.

The values above are taken from paper PMC3576117.
